Assay results published in PMC6039102 (Nature, 2018).
Values joined by “and” are separate entries in the source; they are usually repeats but may differ in a detail not shown here. Identical values can stand only once.

B2: KSHV major capsid protein (MCP) (natural protein)
chain: MEATLEQRPFPYLATEANLLTQIKESAADGLFKSFQLLLGKDAREGSVRFEALLGVYTNVVEFVKFLETALAAACVNTEFKDLRRMIDGKIQFKISMPTIAHGDGRRPNKQRQYIVMKACNKHHIGAEIELAAADIELLFAEKETPLDFTEYAGAIKTITSALQFGMDALERGLVDTVLAVKLRHAPPVFILKTLGDPVYSERGLKKAVKSDMVSMFKAHLIEHSFFLDKAELMTRGKQYVLTMLSDMLAAVCEDTVFKGVSTYTTASGQQVAGVLETTDSVMRRLMNLLGQVESAMSGPAAYASYVVRGANLVTAVSYGRAMRNFEQFMARIVDHPNALPSVEGDKAALADGHDEIQRTRIAASLVKIGDKFVAIESLQRMYNETQFPCPLNRRIQYTYFFPVGLHLPVPRYSTSVSVRGVESPAIQSTETWVVNKNNVPLCFGYQNALKSICHPRMHNPTQSAQALNQAFPDPDGGHGYGLRYEQTPNMNLFRTFHQYYMGKNVAFVPDVAQKALVTTEDLLHPTSHRLLRLEVHPFFDFFVHPCPGARGSYRATHRTMVGNIPQPLAPREFQESRGAQFDAVTNMTHVIDQLTIDVIQETAFDPAYPLFCYVIEAMIHGQEEKFVMNMPLIALVIQTYWVNSGKLAFVNSYHMVRFICTHMGNGSIPKEAHGHYRKILGELIALEQALLKLAGHETVGRTPITHLVSALLDPHLLPPFAYHDVFTDLMQKSSRQPIIKIGDQNYDNPQNRATFINLRGRMEDLVNNLVNIYQTRVNEDHDERHVLDVAPLDENDYNPVLEKLFYYVLMPVCSNGHMCGMGVDYQNVALTLTYNGPVFADVVNAQDDILLHLENGTLKDILQAGDIRPTVDMIRVLCTSFLTCPFVTQAARVITKRDPAQSFATHEYGKDVAQTVLVNGFGAFAVADRSREAAETMFYPVPFNKLYADPLVAATLHPLLANYVTRLPNQRNAVVFNVPSNLMAEYEEWHKSPVAAYAASCQATPGAISAMVSMHQKLSAPSFICQAKHRMHPGFAMTVVRTDEVLAEHILYCSRASTSMFVGLPSVVRREVRSDAVTFEITHEIASLHTALGYSSVIAPAHVAAITTDMGVHCQDLFMIFPGDAYQDRQLHDYIKMKAGVQTGSPGNRMDHVGYTAGVPRCENLPGLSHGQLATCEIIPTPVTSDVAYFQTPSNPRGRAACVVSCDAYSNESAERLLYDHSIPDPAYECRSTNNPWASQRGSLGDVLYNITFRQTALPGMYSPCRQFFHKEDIMRYNRGLYTLVNEYSARLAGAPATSTTDLQYVVVNGTDVFLDQPCHMLQEAYPTLAASHRVMLDEYMSNKQTHAPVHMGQYLIEEVAPMKRLLKLGNKVVY

Columns and labels:
Experiment in all cases: cryo-EM structure
[1] = molecular target: KSHV triplex protein Tri1 (Kaposi's sarcoma-associated herpesvirus (KSHV))
[2] = molecular target: KSHV triplex protein Tri2 (Kaposi's sarcoma-associated herpesvirus (KSHV))
[3] = molecular target: B2
[4] = molecular target: the molecule itself

Molecule “KSHV triplex protein Tri2 (natural protein)” has a stoichiometry N [1] of 2 and a stoichiometry N [2] of 2.

B1: KSHV smallest capsid protein (SCP) (natural protein)
chain: MSNFKVRDPVIQERLDHDYAHHPLVARMNTLDQGNMSQAEYLVQKRHYLVFLIAHHYYEAYLRRMGGIQRRDHLQTLRDQKPRERADRVSAASAYDAGTFTVPSRPGPASGTTPGGQDSLGVSGSSITTLSSGPHSLSPASDILTTLSSTTETAAPAVADARKPPSGKKK
B1: binds [3].

For B2, the “stoichiometry N” value [4] was 5 and 6.
